Biological target: IL-15Rα expressed by TF-1 cells (human) (UniProt Q13261)
Test: cell-based or functional assay

Chain of UniProt Q13261 (Q13261 31-267): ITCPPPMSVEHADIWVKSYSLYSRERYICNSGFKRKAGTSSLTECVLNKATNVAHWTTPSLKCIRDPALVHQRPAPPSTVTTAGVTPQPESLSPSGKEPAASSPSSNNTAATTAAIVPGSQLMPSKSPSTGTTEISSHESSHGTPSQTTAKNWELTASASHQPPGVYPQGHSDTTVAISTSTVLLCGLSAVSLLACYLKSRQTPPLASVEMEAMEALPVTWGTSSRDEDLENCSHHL

Row | EC50 (pM), TF-1β proliferation [pM] | Maximal induction (% WT), TF-1β proliferation [% WT] | Relative activity (% WT), TF-1β proliferation [% WT] | Substance
1 | > 20 | 0 | < 30 | FLAG-IL-15 L44D (from UniProt P40933 49-162) (ligand)
2 | > 60 | 0 | < 10 | FLAG-IL-15 L47D (from UniProt P40933 49-162) (ligand)

From patent publication US20110158938A1
